The source of these data is article PMC4183148.

Where “and” joins values, the source holds several entries; their conditions need not be identical. Identical values can stand only once. Like-named read-outs stand apart in the source and are kept apart here.

Experiment [1] deals with PKM2 (pyruvate kinase, M2 isoform), endogenous (human (endogenous in HEK293T, H1299, U87)) (UniProt P14618). The experiment is described as follows: SEC. On the technique in general: SEC sorts molecules by how far they enter the pores of the column.
For experiment [2] the target is unchanged. The experiment is described as follows: SEC. The source holds these as a separate data set.

Chain of PKM2 (pyruvate kinase, M2 isoform), endogenous, P14618 1-531 (natural protein; other documents disagree on this pair) (P14618 whole entry, canonical isoform): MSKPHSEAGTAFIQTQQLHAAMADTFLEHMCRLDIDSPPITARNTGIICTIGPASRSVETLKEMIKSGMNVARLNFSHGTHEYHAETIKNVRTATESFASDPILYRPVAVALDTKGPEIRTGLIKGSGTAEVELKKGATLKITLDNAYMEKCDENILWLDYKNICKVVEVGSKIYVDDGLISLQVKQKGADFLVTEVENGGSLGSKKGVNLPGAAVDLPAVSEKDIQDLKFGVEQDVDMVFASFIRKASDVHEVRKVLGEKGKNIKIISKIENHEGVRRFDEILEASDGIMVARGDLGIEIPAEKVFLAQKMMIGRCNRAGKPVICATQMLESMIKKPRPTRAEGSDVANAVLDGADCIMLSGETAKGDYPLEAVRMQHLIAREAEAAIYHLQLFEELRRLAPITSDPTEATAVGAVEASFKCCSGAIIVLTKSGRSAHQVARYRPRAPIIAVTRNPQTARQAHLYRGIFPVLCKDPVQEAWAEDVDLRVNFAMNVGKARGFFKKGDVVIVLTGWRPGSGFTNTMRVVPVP

In experiment [1], “PKM2 (pyruvate kinase, M2 isoform), endogenous, P14618 1-531 (natural protein; other documents disagree on this pair)” showed a percent dimeric form of 78.9% and a percent tetrameric form of 20.1%. In experiment [2], the percent dimeric form was 66.5% and 56%; the percent tetrameric form was 26.2% and 43.8%.
